{"source": "paper PMC5595889", "molecular_target": "GST-tagged importin α7 lacking the IBB (human)", "assay": "pull-down"}
{"substance": "influenza A virus (H1N1 strain A/WSN/33) monomeric nucleoprotein (from UniProt P15682 1-498) (natural protein)", "values": [{"measurement": "quantity recovered relative to importin α1", "value": 2, "unit": "fold"}]}
